Test results reported in patent publication US20040063184A1, “Fermentation processes and compositions” (priority 2002, published 2004).

What was measured:
Assay type in all cases: cell-based
[1] = test system: yeast; experiment: Example 4: LSF ethanol fermentation with lipases, purified lipases, ferric sulfate; details: Candida antarctica lipase 400 LU/g DS, purified lipases 100 LU/g DS
Protocol: Example 4 was conducted on dry milled corn according to a simultaneous liquefaction5 saccharification-fermentation (LSF) protocol. The experiment was carried out on ground yellow corn using a glucoamylase and alpha amylase for fermenting ethanol with and without lipase, as described in examples 2 and 3. Fermentations were carried out at pH=5.0, 32° C. for several hours. In addition to Candida antarctica lipase and inactivated Candida antarctica lipase, feric sulfate and purified lipases from Candida cylindracea lipase and Candida antarctica lipase A, were also compared. Four times less of the purified lipase was used.

[2] = test system: yeast; experiment: Example 14: LSF ethanol fermentation with and without laccase; details: additive with glucoamylase: 0.1 M NaCl & 0.7 GAU/g DS, NZ 525 0.5% DS & 0.9 GAU/g DS, laccase 0.2% DS & 1.0 GAU/g DS
Protocol: The addition of a laccase was tested under anaerobic fermentation conditions analogous to ethanol fermenting experiments. The experiment was conducted on dry milled yellow corn according to a simultaneous liquefaction-saccharification-fermentation (LSF) protocol. The experiment was carried out using a glucoamylase (Spirizyme plus, available from Novozymes A/S) for fermenting ethanol, with and without laccase. Fermentations were carried out at pH=5.0, 32° C. for several hour. The process was monitored with time and analyzed for CO2 weight loss, percent ethanol produced and theoretical conversion of the starch.

[3] = test system: Ethanol Red yeast; experiment: Example 8: as Example 6 with protease in the fermentation medium
Protocol: This experiment was carried out using the same experimental conditions and enzyme concentrations described in Example 6, with the exception that protease (Novozyme 50006, 0.007% DS) was also added to the fermentation medium with an increased sample volume.
To eliminate the possibility that a substance in the CALB formulation was contributing to the effect obtained, inactivated CALB was also used. A control was prepared by inactivating CALB by boiling for 3 hours. Upon completion of boiling, the volume was adjusted to the initial value with DI water, and sample was spun down at 3,000 rpm for 20 min. The liquid layer was forced through the 0.45-μm filter. The enzyme was thereby completely inactivated.

[4] = test system: yeast; experiment: Example 2: LSF ethanol fermentation of ground yellow corn with esterases; details: esterase 200 U/g DS
Protocol: Example 2 was conducted on dry milled ground yellow corn according to a simultaneous liquefaction-saccharification-fermentation (LSF) protocol. The experiment was carried out using a glucoamylase (Spirizyme Plus, available from Novozymes A/S) in an amount of 0.8 GAU/g DS and a fungal alpha amylase (SP288, available from Novozymes A/S) in an amount of 2.6 AFAU/g DS for fermenting ethanol along with the addition of:
(A) lipase (LIPOLASE, available from Novozymes A/S),
(B) Candida antarctica lipase,
(C) cutinase (JC 492, available from Novozymes A/S)
(D) phospholipase (LECITASE available from Novozymes A/S),
(E) inactivated Candida antarctica lipase (inactivated by boiling for three hours), and
(F) a control (glucoamylase and amylase without esterase addition).
The esterases were added in an amount corresponding to 200 U/g DS. Fermentations were carried out at pH=5.0, 32° C. for several hours. The process was monitored with time and ana20 lyzed for CO2 weight loss, percent ethanol produced and theoretical conversion of the starch.

[5] = test system: Ethanol Red yeast; experiment: Example 10: Lipolase 100 T versus purified Lipolase
Protocol: In this example, Lipolase 100 T and purified Lipolase (both available from Novozymes A/S) were compared. The Experimental conditions were as follows: Ethanol Red yeast, 36% DS, 1.5 GAU/g DS Spirizyme Fuel, 0.8 AFAU/g DS SP 288. Yeast was propagated with maltodextrin and protease. Fermentation was carried out in 25-ml fermentors at 32.2° C. without mixing for 72 h. A control was run as described, without the addition of lipase.

O=S(=O)([O-])[O-].O=S(=O)([O-])[O-].O=S(=O)([O-])[O-].[Fe+3].[Fe+3] [Fe2(SO4)3]
Calculated ethanol, % v/v ([1]; 24 h): 11.58 ± 0.13 % v/v | Efficiency, % ([1]; 24 h): 52.79 ± 0.67% | Calculated ethanol, % v/v ([1]; 48 h): 16.87 ± 0.43 % v/v | Efficiency, % ([1]; 48 h): 81.84 ± 2.57% | Calculated ethanol, % v/v ([1]; 72 h): 18.82 ± 0.91 % v/v | Efficiency, % ([1]; 72 h): 91.00 ± 2.45%

[Cl-].[Na+] [NaCl]
HPLC ethanol, % v/v ([2]; 7 h): 1.88 % v/v | HPLC ethanol, % v/v ([2]; 23 h): 7.91 % v/v | HPLC ethanol, % v/v ([2]; 29 h): 8.78 % v/v | HPLC ethanol, % v/v ([2]; 47 h): 10.30 % v/v | HPLC ethanol, % v/v ([2]; 55 h): 10.94 % v/v | HPLC ethanol, % v/v ([2]; 119 h): 14.61 % v/v

B1: Candida antarctica lipase inactive: Candida antarctica lipase inactivated by boiling for three hours (protein, UniProt P41365 26-342, looked up)
Lipase B: LPSGSDPAFSQPKSVLDAGLTCQGASPSSVSKPILLVPGTGTTGPQSFDSNWIPLSTQLGYTPCWISPPPFMLNDTQVNTEYMVNAITALYAGSGNNKLPVLTWSQGGLVAQWGLTFFPSIRSKVDRLMAFAPDYKGTVLAGPLDALAVSAPSVWQQTTGSALTTALRNAGGLTQIVPTTNLYSATDEIVQPQVSNSPLDSSYLFNGKNVQAQAVCGPLFVIDHAGSLTSQFSYVVGRSALRSTTGQARSADYGITDCNPLPANDLTPEQKVAAAALLAPAAAAIVAGPKQNCEPDLMPYARPFAVGKRTCSGIVTP
modifications: heat-inactivated by boiling
Calculated ethanol, % v/v ([1]; 24 h): 10.59 ± 0.16 % v/v | Efficiency, % ([1]; 24 h): 49.33 ± 0.85% | Calculated ethanol, % v/v ([1]; 48 h): 16.91 ± 0.30 % v/v | Efficiency, % ([1]; 48 h): 84.73 ± 1.77% | Calculated ethanol, % v/v ([1]; 72 h): 18.65 ± 0.40 % v/v | Efficiency, % ([1]; 72 h): 95.49 ± 2.53% | effect on ethanol yield and efficiency [3]: no significant difference between ethanol yield of control samples and ethanol yield of samples treated with inactivated CALB | Calculated ethanol, % v/v ([4]; 24 h): 11.43 ± 0.08 % v/v | Efficiency, % ([4]; 24 h): 52.88 ± 0.40% | Calculated ethanol, % v/v ([4]; 48 h): 16.88 ± 0.15 % v/v | Efficiency, % ([4]; 48 h): 83.18 ± 0.89% | Efficiency, % ([4]; 72 h): 90.89 ± 0.25% | HPLC ethanol, % v/v ([4]; 72 h): 19.49 ± 0.04 % v/v

B2: Lipolase (purified): purified Lipolase, available from Novozymes A/S (protein, UniProt O59952 23-291, looked up)
Lipase: EVSQDLFNQFNLFAQYSAAAYCGKNNDAPAGTNITCTGNACPEVEKADATFLYSFEDSGVGDVTGFLALDNTNKLIVLSFRGSRSIENWIGNLNFDLKEINDICSGCRGHDGFTSSWRSVADTLRQKVEDAVREHPDYRVVFTGHSLGGALATVAGADLRGNGYDIDVFSYGAPRVGNRAFAEFLTVQTGGTLYRITHTNDIVPRLPPREFGYSHSSPEYWIKSGTLVPVTRNDIVKIEGIDATGGNNQPNIPDIPAHLWYFGLIGTCL
Change, % v/v vs. control (efficiency) ([5]; 1 LU/g DS): +1.00 % v/v | Change, % v/v vs. control (ethanol) ([5]; 1 LU/g DS): +0.31 % v/v | Efficiency, % ([5]; 1 LU/g DS): 84.00% | Ethanol, % v/v in beer ([5]; 1 LU/g DS): 18.41 % v/v | Change, % v/v vs. control (efficiency) ([5]; 10 LU/g DS): +0.49 % v/v | Change, % v/v vs. control (ethanol) ([5]; 10 LU/g DS): +0.52 % v/v | Efficiency, % ([5]; 10 LU/g DS): 83.49% | Ethanol, % v/v in beer ([5]; 10 LU/g DS): 18.62 % v/v | Change, % v/v vs. control (efficiency) ([5]; 100 LU/g DS): +0.57 % v/v | Change, % v/v vs. control (ethanol) ([5]; 100 LU/g DS): +0.14 % v/v | Efficiency, % ([5]; 100 LU/g DS): 83.57% | Ethanol, % v/v in beer ([5]; 100 LU/g DS): 18.24 % v/v
